The values that follow are results of earlier work, collected in paper PMC8509922.

“And” between values parts separate entries of the source, which are not always exact repeats. Equal entries are not always repeated. Where two headings read alike, the source gives them in different places.

For data set [1], the target named is BmpR1 (Homo sapiens) (UniProt P36894).
In data set [2] the target is Acvr1 (Homo sapiens) (UniProt Q04771).
For data set [3], the target named is BmpR1 (Homo sapiens) (UniProt P36894). The source holds these as a separate data set.
The target of data set [4] is Acvr1 (Homo sapiens) (UniProt Q04771). The source holds these as a separate data set.

UniProt Q04771, sequence (Q04771 21-123): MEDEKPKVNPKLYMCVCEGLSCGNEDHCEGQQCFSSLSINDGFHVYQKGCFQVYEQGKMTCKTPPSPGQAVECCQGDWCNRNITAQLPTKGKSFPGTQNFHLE
UniProt P36894, sequence (P36894 24-152): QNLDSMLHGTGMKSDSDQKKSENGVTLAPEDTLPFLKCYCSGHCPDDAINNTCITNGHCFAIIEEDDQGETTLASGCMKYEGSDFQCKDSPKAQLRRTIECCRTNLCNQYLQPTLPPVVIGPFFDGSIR

The Kd is the equilibrium constant for the complex coming apart. As for Bmp2 (from UniProt P12643), the Kd with BmpR1 (Homo sapiens) [1] is 0.8 nM.

For “Bmp2/7 heterodimer (from UniProt P12643)”, the Kd in the data set with Acvr1 (Homo sapiens) [2] was 512 nM and 1020 nM.

For the substance Bmp7 (from UniProt P18075), the Kd is 56 nM with BmpR1 (Homo sapiens) [3] and 500 nM with Acvr1 (Homo sapiens) [4].
